{"source": "paper PMC12753827", "about": "(Nature Communications, 2025)", "proteins": {"B1": {"name": "CeLGR-ΔC (C. elegans leucine-rich-repeat-containing GPCR truncated after helix 8 at residue 712) (receptor)", "chain": "QNALSLAQTKHSCMALKAEDGEGCTCKQTKRYGQPECCCMGLIVSQLPTNLTADVGYLYLHNTSISVITPNFFDKFPSIRELEIDNSAHLEHIDGSSLSVLSKLRKLSVVKCPNLREISGKLLVNNTRIQNVILKNNGLATMPSLRMTDAHHVLLDRIDLSGNKIKFISDSKVRNVKARTVVLSENKLIEISGYAFTESQFLKLKLNNNPDLRSLSVDAFKNMAGLQTLDLSHTSIDTLPINGLKKLKTLILNDVPTLKSLPSVLSFTDLETAHFTYPHHCCLFKYVDDVTMNDNGKYQRNAKEIHKRICDKREQQKVARRRKRETSGIDFLDMLLKEWTDNSTYTGPDDADDDELPPFVEIGAEPCQSIGEEVQKYYSNITCYPQPDALNPCENIVGYPFLRIAVWVVCLAAIVGNIIVWALLGIVYEKRMRMHYLYMINMSVADMVTGIYLAVLAIADAKMSDEYYRHAVWWQTGWGCRAAGFLAVFASELGIISMFLIAFEMSYNTRQSFRGRRLSPKVGVLLMIGGWLFAIIMAILPWFDVSSYSESSVCLPLRAATIFDKSYLIFGLSFNFLAFAAMALSYGFIVKMLKENETREEDRALITKMTVLVVTDLICWFPTLFFGFTATIGFPLLSLSSAKFVLVFFFPINAFANPFLYVFFTEVIQHRVRSKTLPVIRR"}}, "molecular_target": "the molecule itself", "experiment": "SEC"}
{"protein": "B1", "values": [{"measurement": "stoichiometry N", "result": 2}]}
